Key:
[1] = target: A/Texas/37/2024 (H5N1) HA (Influenza A virus A/Texas/37/2024 (H5N1), strain); assay: BLI; details: both partners purified
[2] = target: T1, A/Taiwan/01/1986 (H1N1) HA (Influenza A virus A/Taiwan/1/1986 (H1N1), UniProt F5CU03, strain); assay: ELISA; details: one partner purified
T1 construct: source: bought: Sino Biological

[3] = target: T2, A/Solomon Islands/3/2006 (H1N1) HA (influenza A virus A/Solomon …); assay: ELISA; details: one partner purified
[4] = target: A/Beijing/262/1995 (H1N1) HA (Influenza A virus A/Beijing/262/1995 …, UniProt B4UPF7, strain); assay: ELISA; details: one partner purified
A/USSR/90/1977 (H1N1) HA = target: T3, A/USSR/90/1977 (H1N1) HA (Influenza A virus A/USSR/90/1977 (H1N1), UniProt P03453, strain); assay: ELISA; details: one partner purified
T3 construct: source: bought: Sino Biological

[5] = target: T4, A/Michigan/45/2015 (H1N1) HA (Influenza A virus A/Michigan/45/2015 …, UniProt A0A1J0CXU0, strain); assay: ELISA; details: one partner purified
[6] = target: T5, A/California/07/2009 (H1N1) HA (Influenza A virus A/California/07/2009 …, UniProt C3W5X2, strain); assay: ELISA; details: one partner purified
T5 construct: source: bought: BEI Resources (NR-42635)

[7] = target: T6, A/Japan/305/1957 (H2N2) HA (Influenza A virus A/Japan/305/1957 …, UniProt Q0A2X3, strain); assay: ELISA; details: one partner purified
T6 construct: source: Sf9, baculovirus, purified from supernatant (Ni Sepharose Excel, SEC)

[8] = target: T2, A/Solomon Islands/3/2006 (H1N1) HA; assay: cryo-EM structure; details: both partners purified
[9] = target: T4, A/Michigan/45/2015 (H1N1) HA; assay: BLI; details: both partners purified

Row | Binder | binding result [2] | binding result [3] | binding result (A/USSR/90/1977 (H1N1) HA) | binding result [6] | binding result [8] | binding result [9] | further results
1 | HB31 wild type (WT) Fab (Fab, V domains shown, also called HB31 WT Fab; HB31 Fab; source: Expi293F, transiently co-transfected, purified (CaptureSelect CH1-XL)) VH: EVQLLESGGGLVQPGGSLRLSCTVSGFTSSNYDMSWVRQAPGKGLEWVSGISGTGRDTYYADSVKGRFTISRDNSKNTLSLQMNSLRADDTAVYFCARDRPVLRYFDWQPYGLDVWGKGTTVTVSS VL: QSALTQPPSASGSPGQSVTISCTGTSSDVGGYNYVSWYQQYPSKAPKLMIYEVSKRPSGVPDRFSGSKSGNTASLTVSGLQAEDEADYYCNSYAGSNLYVFGTGTKVTVL |  |  |  |  |  |  | Kd [1]: 4.5 nM
2 | HB31 wild type (WT) IgG (antibody, V domains shown, copies: 2 + 2) VH: EVQLLESGGGLVQPGGSLRLSCTVSGFTSSNYDMSWVRQAPGKGLEWVSGISGTGRDTYYADSVKGRFTISRDNSKNTLSLQMNSLRADDTAVYFCARDRPVLRYFDWQPYGLDVWGKGTTVTVSS VL: QSALTQPPSASGSPGQSVTISCTGTSSDVGGYNYVSWYQQYPSKAPKLMIYEVSKRPSGVPDRFSGSKSGNTASLTVSGLQAEDEADYYCNSYAGSNLYVFGTGTKVTVL |  |  |  |  |  |  | Kd [1]: 1.6 nM
3 | HB34 (IgG format) (antibody, V domains shown) VH: EVQLLESGGGLVQPGGSLRLSCTVSGFTSSNYDMSWVRQAPGKGLEWVSGISGTGRDTYYADSVKGRFTISRDNSKNTLSLQMNSLRADDTAVYFCARDRPVLRYFDWQPYGLDVWGKGTTVTVSS VL: QSALTQPASVSGSPGQSITISCTGTSSDVGSYNLVSWYQQHPGKAPKLMIYEGSQRPSGVSNRFSGSKSGNTASLTISGLQAEDEADYYCCSYASSTSYVFGTGTKVTVL | binds | binds | binds | binds |  |  | binding result [4]: binds; binding result [5]: binds
4 | HB315 (IgG format) (antibody, V domains shown) VH: EVQLLESGGGLAQPGGSLRLSCTASGFTFSNFAMNWVRQAPGKGLEWVSFINSGSGSTYYADSVKGRFTISRDNSENTLFLQMNSLRAEDTAVYYCAKDLGRAIFGLVIPEGAFDIWGQGTMVTVSS VL: EIVMTQSPSSLSASVGDRVTITCRASQSINNHLNWYQQKPGKAPKLLIYAASSLQSGVPSRFSGSGSGTDFTLTISSLQPADFATYHCQQSYGVPLTFGQGTKVEIK | binds | binds | binds | binds |  |  | binding result [4]: binds; binding result [5]: binds; fold stronger binding activity than HB31 and HB34 (ELISA) [7]: ≥ 4 fold
5 | HB31 (IgG format) (antibody, V domains shown, also called HB31 wild type; WT) VH: EVQLLESGGGLVQPGGSLRLSCTVSGFTSSNYDMSWVRQAPGKGLEWVSGISGTGRDTYYADSVKGRFTISRDNSKNTLSLQMNSLRADDTAVYFCARDRPVLRYFDWQPYGLDVWGKGTTVTVSS VL: QSALTQPPSASGSPGQSVTISCTGTSSDVGGYNYVSWYQQYPSKAPKLMIYEVSKRPSGVPDRFSGSKSGNTASLTVSGLQAEDEADYYCNSYAGSNLYVFGTGTKVTVL | binds | binds | binds | binds |  |  | 
6 | HB31 Fab (Fab, V domains shown) VH: EVQLLESGGGLVQPGGSLRLSCTVSGFTSSNYDMSWVRQAPGKGLEWVSGISGTGRDTYYADSVKGRFTISRDNSKNTLSLQMNSLRADDTAVYFCARDRPVLRYFDWQPYGLDVWGKGTTVTVSS VL: QSALTQPPSASGSPGQSVTISCTGTSSDVGGYNYVSWYQQYPSKAPKLMIYEVSKRPSGVPDRFSGSKSGNTASLTVSGLQAEDEADYYCNSYAGSNLYVFGTGTKVTVL |  |  |  |  | binds | binds | 
7 | HB34 Fab (Fab, V domains shown) VH: EVQLLESGGGLVQPGGSLRLSCTVSGFTSSNYDMSWVRQAPGKGLEWVSGISGTGRDTYYADSVKGRFTISRDNSKNTLSLQMNSLRADDTAVYFCARDRPVLRYFDWQPYGLDVWGKGTTVTVSS VL: QSALTQPASVSGSPGQSITISCTGTSSDVGSYNLVSWYQQHPGKAPKLMIYEGSQRPSGVSNRFSGSKSGNTASLTISGLQAEDEADYYCCSYASSTSYVFGTGTKVTVL |  |  |  |  | binds | binds | 
8 | HB315 Fab (Fab, V domains shown) VH: EVQLLESGGGLAQPGGSLRLSCTASGFTFSNFAMNWVRQAPGKGLEWVSFINSGSGSTYYADSVKGRFTISRDNSENTLFLQMNSLRAEDTAVYYCAKDLGRAIFGLVIPEGAFDIWGQGTMVTVSS VL: EIVMTQSPSSLSASVGDRVTITCRASQSINNHLNWYQQKPGKAPKLLIYAASSLQSGVPSRFSGSGSGTDFTLTISSLQPADFATYHCQQSYGVPLTFGQGTKVEIK |  |  |  |  | binds | binds | 
9 | CR9114 Fab (Fab, V domains shown, source: Expi293F, transient co-transfection, purified (CaptureSelect CH1-XL)) VH: QVQLVQSGAEVKKPGSSVKVSCKSSGGTSNNYAISWVRQAPGQGLDWMGGISPIFGSTAYAQKFQGRVTISADIFSNTAYMELNSLTSEDTAVYFCARHGNYYYYSGMDVWGQGTTVTVSS VL: QSALTQPPAVSGTPGQRVTISCSGSDSNIGRRSVNWYQQFPGTAPKLLIYSNDQRPSVVPDRFSGSKSGTSASLAISGLQSEDEAEYYCAAWDDSLKGAVFGGGTQLTVL |  |  |  |  |  | binds | 
10 | 047-09 4F04 Fab (Fab, V domains shown) VH: EVQLVESGGGLVQPGGSLRLSCAASGFTFNTYNMNWVRQAPGKGLEWVSYISSSSLSRYYADSVKGRFTISRDNAKNSLFLQMNSLRAEDTAVYYCARGAQAGYSSFFPPTTFWGQGTLVTVSS VL: EIVMTQSPATLSVSPGEGVTLSCRASQSVSSNLAWYQQKPGQAPRLLIYGASTRATGIPARFSGSGSGTEFTLTISSLQSEDFAVYYCQQYYNWPPLTFGGGTKVEIK |  |  |  |  |  | binds | 

Reference: paper PMC13438699 (Nature Communications, 2026)
